B1: Rvb1p-Rvb2p complex (hetero-hexamer) (complex, Saccharomyces cerevisiae)
chain 1: MVAISEVKENPGVNSSNSGAVTRTAAHTHIKGLGLDESGVAKRVEGGFVGQIEAREACGVIVDLIKAKKMSGRAILLAGGPSTGKTALALAISQELGPKVPFCPLVGSELYSVEVKKTETLMENFRRAIGLRIKETKEVYEGEVTELTPEDAENPLGGYGKTISHVIVGLKSAKGTKTLRLDPTIYESIQREKVSIGDVIYIEANTGAVKRVGRSDAYATEFDLETEEYVPLPKGEVHKKKEIVQDVTLHDLDVANARPQGGQDVISMMGQLLKPKKTEITEKLRQEVNKVVAKYIDQGVAELIPGVLFIDEVNMLDIEIFTYLNKALESNIAPVVVLASNRGMTTVRGTEDVISPHGVPPDLIDRLLIVRTLPYDKDEIRTIIERRATVERLQVESSALDLLATMGTETSLRYALQLLAPCGILAQTSNRKEIVVNDVNEAKLLFLDAKRSTKILETSANYL
chain 2: MSIQTSDPNETSDLKSLSLIAAHSHITGLGLDENLQPRPTSEGMVGQLQARRAAGVILKMVQNGTIAGRAVLVAGPPSTGKTALAMGVSQSLGKDVPFTAIAGSEIFSLELSKTEALTQAFRKSIGIKIKEETELIEGEVVEIQIDRSITGGHKQGKLTIKTTDMETIYELGNKMIDGLTKEKVLAGDVISIDKASGKITKLGRSFARSRDYDAMGADTRFVQCPEGELQKRKTVVHTVSLHEIDVINSRTQGFLALFTGDTGEIRSEVRDQINTKVAEWKEEGKAEIVPGVLFIDEVHMLDIECFSFINRALEDEFAPIVMMATNRGVSKTRGTNYKSPHGLPLDLLDRSIIITTKSYNEQEIKTILSIRAQEEEVELSSDALDLLTKTGVETSLRYSSNLISVAQQIAMKRKNNTVEVEDVKRAYLLFLDSARSVKYVQENESQYIDDQGNVQISIAKSADPDAMDTTE
notes: Rvb1p, AAA+ ATPase of yeast R2TP; gene (Genscript) cloned into pET28b with NdeI and BamHI; gene (Genscript) cloned into a modified pRSETA (containing 3X Myc-tags) with NheI and HindIII; also called R2; Rvb1p-Rvb2p hexamer; copies: 3 + 3
B2: Rvb1p (natural protein, Saccharomyces cerevisiae, UniProt Q03940 1-463, looked up)
chain: B1 chain 1
notes: Rvb1p, AAA+ ATPase of yeast R2TP; gene (Genscript) cloned into pET28b with NdeI and BamHI; also called Rvb1p-only complex

Legend:
Tah1p-Pih1p complex = biological target: T1, Tah1p-Pih1p complex (yeast, UniProt P25638 1-111; P38768 1-344); assay: AUC; sedimentation velocity, 43,000 rpm, samples 2 to 4 μM in 20 mM HEPES pH 7.8, 140 mM NaCl, 5 mM MgCl2, 0.5 mM EDTA, 0.5 mM TCEP; TP alone, R2 alone, and R2 mixed with TP at 1:2.4 molar ratio; conditions: both partners purified
T1 construct: Tah1p, TPR domain protein of yeast R2TP; gene cloned into a modified pET28b (NdeI/BamHI) giving 2xStrep-tagged Tah1p; Pih1p of yeast R2TP; PIH1P gene cloned into p3E (modified pGEX6p) with NdeI and HindIII; Heterodimer of 53 kDa by sedimentation velocity; also called TP; 2xStrep-Tah1p-Pih1p
T1 sequence (looked up) 1: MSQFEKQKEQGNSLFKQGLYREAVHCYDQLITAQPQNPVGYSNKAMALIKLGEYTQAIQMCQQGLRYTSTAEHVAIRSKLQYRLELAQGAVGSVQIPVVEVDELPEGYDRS
T1 sequence (looked up) 2: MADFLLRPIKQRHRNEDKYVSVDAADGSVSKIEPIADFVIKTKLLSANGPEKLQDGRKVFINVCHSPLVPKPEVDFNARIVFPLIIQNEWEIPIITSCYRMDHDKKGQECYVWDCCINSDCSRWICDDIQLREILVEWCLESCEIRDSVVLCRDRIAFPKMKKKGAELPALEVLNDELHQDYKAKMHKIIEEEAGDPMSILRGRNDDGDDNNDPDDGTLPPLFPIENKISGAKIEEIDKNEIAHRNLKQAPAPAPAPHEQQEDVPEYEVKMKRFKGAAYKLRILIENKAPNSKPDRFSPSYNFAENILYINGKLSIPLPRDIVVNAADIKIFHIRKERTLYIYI

Rvb2p = biological target: T2, Rvb2p (Saccharomyces cerevisiae, UniProt Q12464 1-471); assay: as above; conditions: both partners purified
T2 construct: gene (Genscript) cloned into a modified pRSETA (containing 3X Myc-tags) with NheI and HindIII; also called Rvb2p-only complex; source: Rosetta (DE3) pLysS, co-expressed with Rvb1p, purified (Talon, gel filtration)

Binder | stoichiometry N (Tah1p-Pih1p complex) | stoichiometry N (Rvb2p)
B1 | 1 Rvb1p-Rvb2p hetero-hexamer per Tah1p-Pih1p complex | –
B2 | – | 1 Rvb1p per Rvb2p (3:3)

Source: article PMC5501727, “The Structure of the R2TP Complex Defines a Platform for Recruiting Diverse Client Proteins to the HSP90 Molecular Chaperone System” (Structure(London, England:1993), 2017)
